Data from US20220193132A1.

Key:
[1] = molecular target: EGFRvIII, full length, overexpressed on glioblastoma cells (human) (UniProt P00533); experiment: cell-based or functional assay
[2] = molecular target: wild type human EGFR, full length, overexpressed on U87MG cells (human) (UniProt P00533); experiment: cell-based or functional assay
[3] = molecular target: recombinant human EGFRvIII protein (extracellular domain), denatured (human) (UniProt P00533); experiment: ELISA Exp 1, mAb supernatant
[4] = molecular target: recombinant human EGFRvIII protein (extracellular domain), native (human) (UniProt P00533); experiment: ELISA Exp 1, mAb supernatant
[5] = molecular target: recombinant human wild type EGFR protein (extracellular domain), denatured (human) (UniProt P00533); experiment: ELISA Exp 1, mAb supernatant
[6] = molecular target: recombinant human wild type EGFR protein (extracellular domain), native (human) (UniProt P00533); experiment: ELISA Exp 1, mAb supernatant
[7] = molecular target: recombinant human EGFRvIII protein (extracellular domain), denatured (human) (UniProt P00533); experiment: ELISA Exp 2, purified mAb 1 ug/ml
[8] = molecular target: recombinant human EGFRvIII protein (extracellular domain), native (human) (UniProt P00533); experiment: ELISA Exp 2, purified mAb 1 ug/ml
[9] = molecular target: recombinant human wild type EGFR protein (extracellular domain), native (human) (UniProt P00533); experiment: ELISA Exp 2, purified mAb 1 ug/ml
[10] = molecular target: wild type human EGFR, full length, overexpressed on U87MG cells (human) (UniProt P00533); experiment: flow cytometry dose-response on U87MG-EGFRwt cells, apparent Kd
[11] = molecular target: EGFRvIII, full length, overexpressed on glioblastoma cells (human) (UniProt P00533); experiment: flow cytometry dose-response on U87MG-EGFRvIII cells, apparent Kd
[12] = molecular target: recombinant human wild type EGFR protein (extracellular domain), denatured (human) (UniProt P00533); experiment: ELISA Exp 2, purified mAb 1 ug/ml

| % internalization (pHrodo surrogate assay, vs 225 mAb) [1] | % internalization (pHrodo surrogate assay, vs 225 mAb) [2] | ELISA absorbance 405 nm [3] | ELISA absorbance 405 nm [4] | ELISA absorbance 405 nm [5] | ELISA absorbance 405 nm [6] | ELISA absorbance 405 nm [7] | ELISA absorbance 405 nm [8] | ELISA absorbance 405 nm [9] | Kd [10] | Kd [11] | ELISA absorbance 405 nm [12] | Substance | % survival (DM1 secondary-conjugate ADC surrogate assay, vs mouse IgG) [1] | % survival (DM1 secondary-conjugate ADC surrogate assay, vs mouse IgG) [2] |
| --- | --- | --- | --- | --- | --- | --- | --- | --- | --- | --- | --- | --- | --- | --- |
| 100% | 101% | 0.001 A405 | 1.08 A405 | -0.01 A405 | 1.2 A405 | 0.004 A405 | 1.5 A405 | 1.32 A405 | 2.2 nM | 2.2 nM | – | 225 mAb (ATCC HB-8508) (antibody) | 49% | 52% |
| < 3% | – | – | – | – | – | – | – | – | – | – | – | Neg ctrl mIgG (antibody) | – | – |
| – | – | – | – | – | – | – | -0.001 A405 | – | – | – | 0 A405 | Neg ctrl mouse mAb (antibody) | > 98% | > 98% |
